Results as given in paper PMC3483115.

Molecular target: TRPV1-CT44 (TRPV1 C-terminal residues 759–802) (rat) (UniProt O35433)
Experiment: other fluorescence titration

Sequence of TRPV1-CT44 (TRPV1 C-terminal residues 759–802) (rat) (O35433 759-802): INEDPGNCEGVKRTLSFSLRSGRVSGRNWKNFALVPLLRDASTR

stoichiometry N: 1
Substance: calmodulin (CaM), wild type (from UniProt P0DP23 1-149) (natural protein)
